Measurements published in patent publication US7317096 (LEADD B V, dated 2008).

Target: the molecule itself
Experiment: size exclusion chromatography (Superose 6 HR 10/30)

B1: MBP-AAP-1 fusion protein (pMAL-AAP-1) (other, not shown: large carriers)
chain: MTMGDKKSPTRPKRQAKPAADEGFWDCSVCTFRNSAEAFKCSICDVRKGTSTRKPRINSQLVAQQVAQQYATPPPPKKEKKEKVEKQDKEKPEKDKEISPSVTKKNTNKKTKPKSDILKDPPSEANSIQSANATTKTSETNHTSRPRLKNVDRSTAQQLAVTVGNVTVIITDFKEKTRSSSTSSSTVTSSAGSEQQNQSSSGSESTDKGSSRSSTPKGDMSAVNDESF
notes: Produced in E. coli, 90 to 95% pure; Printed as 'a Homotrimer or Homo-tetramer'; also called MBP-AAPI
**Q.** Does B1 bind?
**A.** Result: binds
